# Non-standard residues stand in square brackets, D forms with d. No end group written: not given here. Cit = NC(=O)NCCC[C@H](N)C(=O)O
# T1: msVim XS/XL (mouse, also: biotin label)
# T1 construct: also called mouse vimentin peptide
# T1 peptide: YVT[Cit]SSAV[Cit]L[Cit]SSVP
# T2: msFibα XG (mouse, X at position 8 is citrulline; biotin label)
# T2 peptide: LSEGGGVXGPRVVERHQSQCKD
# T3: msFibα XH (mouse, X at position 15 is citrulline; biotin label)
# T3 peptide: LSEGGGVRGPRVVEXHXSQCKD
# T4: msFibβ XG (mouse, also: biotin label)
# T4 peptide: EPTDSLDA[Cit]GHRPVDRR
# T5: huFibα XG (human, X at position 8 is citrulline; biotin label)
# T5 peptide: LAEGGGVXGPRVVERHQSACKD
# T6: huFibα XH (human, X at position 15 is citrulline; biotin label)
# T6 peptide: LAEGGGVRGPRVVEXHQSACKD
# T7: Histone 2A citrulline-containing peptide 2 (human, also: biotin label)
# T7 peptide: AKAKS[Cit]SSRAGL
# T8: Histone 2A citrulline-containing peptide 7 (human, also: biotin label)
# T8 peptide: GNYSE[Cit]VGAGAP
# T9: Histone 2A citrulline-containing peptide 1 (human, also: biotin label)
# T9 construct: also called AAASGXGKQGGK
# T9 peptide: AAASG[Cit]GKQGGK
# T10: Histone 2A citrulline-containing peptide 9 (human, also: biotin label)
# T10 peptide: DNKKT[Cit]IIPRHL
# T11: Histone 2A citrulline-containing peptide 11 (human, also: biotin label)
# T11 peptide: LQLAI[Cit]NDEELN
# T12: Histone 2A citrulline-containing peptide 4 (human, also: biotin label)
# T12 peptide: QFPVG[Cit]VHRLLR
# T13: Histone 2A citrulline-containing peptide 5 (human, also: biotin label)
# T13 peptide: VGRVH[Cit]LLRKGN
# T14: Histone 2A citrulline-containing peptide 8 (human, also: biotin label)
# T14 peptide: AGNAA[Cit]DNKKTR
# T15: Histone 2A citrulline-containing peptide 10 (human, also: biotin label)
# T15 peptide: TRIIP[Cit]HLQLAI
# T16: Histone 2A citrulline-containing peptide 3 (human, also: biotin label)
# T16 peptide: KSRSS[Cit]AGLQFP
# T17: Histone 2A citrulline-containing peptide 12 (human, also: biotin label)
# T17 peptide: NKLLG[Cit]VTIAQG
# B1: RhmAb2.102 (antibody, human IgG1, lambda)
# heavy: not shown
# light: QSVLTQPPSMSAAPGQKVTISCSGSSSNIGNNYVSWYQQVPGTAPKLLIYDDNKRPSGIPGRFSGSKSATSATLGITGLQAGDEADYYCGSWDDNLSVVLFGGGTKLTVLGQPKAAPSVTLFPPSSEELQANKATLVCLISDFYPGAVTVAWKADSSPVKAGVETTTPSKQSNNKYAASSYLSLTPEQWKSHRSYSCQVTHEGSTVEKTVAPTECS
# notes: Human IgG1 lambda; also called Rhm2.102
# What was measured:
# msVim XS/XL = molecular target: T1, msVim XS/XL; assay: peptide ELISA, 2 ug/well
# Description: (§1) Biotin and citrulline-containing peptides derived from fibrinogen and vimentin were immobilized on NEUTRAVIDIN®-coated 96-well ELISA plates (0.3 μg/well). CFC-1 and CFC-0 were coated at the same concentration and served as positive and negative controls respectively for specific anti-citrulline reactivity and as coating controls. Non-coated wells were used to test for aspecific binding of the antibodies. […] Detection of bound anti-citrulline antibodies was performed by incubating the wells with rabbit-anti-human-HRP (1:2000) for one hour at RT followed by incubation with TMB substrate. The resulting OD (y-axis) is a measure for antibody binding.
# (§2) Biotin-labeled and citrulline-containing fibrinogen and vimentin peptides (Table 5) were also tested for reactivity with the therapeutic antibodies. Peptides were coated on 96-well NEUTRAVIDIN®-ELISA plates.
# msFibα XG = molecular target: T2, msFibα XG; assay: peptide ELISA, 2 ug/well
# Description: as §1, §2
# msFibα XH = molecular target: T3, msFibα XH; assay: peptide ELISA, 2 ug/well
# Description: as §1, §2
# msFibβ XG = molecular target: T4, msFibβ XG; assay: peptide ELISA, 2 ug/well
# Description: as §1, §2
# CFC-1 [1] = molecular target: T18, CFC-1; assay: peptide ELISA, 2 ug/well
# T18 construct: Positive control for anti-citrulline reactivity; also called cfc1 XG
# Description: as §1, §2
# huFibα XG = molecular target: T5, huFibα XG; assay: peptide ELISA, 2 ug/well
# Description: as §1, §2
# huFibα XH = molecular target: T6, huFibα XH; assay: peptide ELISA, 2 ug/well
# Description: as §1, §2
# [2] = molecular target: T7, Histone 2A citrulline-containing …; assay: peptide ELISA, 0.00064 ug/well
# Description: as §1, with “histone 2A” for “fibrinogen and vimentin”
# (§3) Ninety-six-well ELISA plates were coated with NEUTRAVIDIN® (0.1 μg/well) by overnight incubation at 4° C. Wells were washed five times with PBS-TWEEN®-20 (PBS-T) and blocked by a one-hour incubation with PBS-T+1% Bovine serum albumin (BSA) at room temperature (RT). After five more washes with PBS-T, wells were incubated for one hour at RT with histone-derived citrulline and biotin-containing peptides (0.3 μg/well). […] Wells were washed five times with PBS-T and incubated with rabbit-anti-human-HRP (1:2000) for one hour at RT followed by five washes with PBS-T and three wash steps with PBS. Wells were incubated for five minutes with TMB substrate before stopping the reaction with 2 M H₂SO₄. Optical density was measured by 450 nm and is a measure for the affinity of the antibodies used.
# [3] = molecular target: T8, Histone 2A citrulline-containing …; assay: peptide ELISA, 0.00064 ug/well
# Description: as §1, with “histone 2A” for “fibrinogen and vimentin”
# as §3
# [4] = molecular target: T9, Histone 2A citrulline-containing …; assay: peptide ELISA, 0.00064 ug/well
# Description: as §1, with “histone 2A” for “fibrinogen and vimentin”
# as §3
# CFC-1 [5] = molecular target: T18, CFC-1; assay: peptide ELISA, 0.00064 ug/well
# Description: as §1, with “histone 2A” for “fibrinogen and vimentin”
# as §3
# [6] = molecular target: T10, Histone 2A citrulline-containing …; assay: peptide ELISA, 0.00064 ug/well
# Description: as §1, with “histone 2A” for “fibrinogen and vimentin”
# as §3
# [7] = molecular target: T11, Histone 2A citrulline-containing …; assay: peptide ELISA, 0.00064 ug/well
# Description: as §1, with “histone 2A” for “fibrinogen and vimentin”
# as §3
# [8] = molecular target: T12, Histone 2A citrulline-containing …; assay: peptide ELISA, 0.00064 ug/well
# Description: as §1, with “histone 2A” for “fibrinogen and vimentin”
# as §3
# [9] = molecular target: T13, Histone 2A citrulline-containing …; assay: peptide ELISA, 0.00064 ug/well
# Description: as §1, with “histone 2A” for “fibrinogen and vimentin”
# as §3
# [10] = molecular target: T14, Histone 2A citrulline-containing …; assay: peptide ELISA, 0.00064 ug/well
# Description: as §1, with “histone 2A” for “fibrinogen and vimentin”
# as §3
# [11] = molecular target: T15, Histone 2A citrulline-containing …; assay: peptide ELISA, 0.4 ug/well
# Description: as §1, with “histone 2A” for “fibrinogen and vimentin”
# as §3
# [12] = molecular target: T8, Histone 2A citrulline-containing …; assay: peptide ELISA, 0.4 ug/well
# Description: as §1, with “histone 2A” for “fibrinogen and vimentin”
# as §3
# [13] = molecular target: T9, Histone 2A citrulline-containing …; assay: peptide ELISA, 0.4 ug/well
# Description: as §1, with “histone 2A” for “fibrinogen and vimentin”
# as §3
# CFC-1 [14] = molecular target: T18, CFC-1; assay: peptide ELISA, 0.4 ug/well
# Description: as §1, with “histone 2A” for “fibrinogen and vimentin”
# as §3
# [15] = molecular target: T11, Histone 2A citrulline-containing …; assay: peptide ELISA, 0.4 ug/well
# Description: as §1, with “histone 2A” for “fibrinogen and vimentin”
# as §3
# [16] = molecular target: T16, Histone 2A citrulline-containing …; assay: peptide ELISA, 0.4 ug/well
# Description: as §1, with “histone 2A” for “fibrinogen and vimentin”
# as §3
# [17] = molecular target: T12, Histone 2A citrulline-containing …; assay: peptide ELISA, 0.4 ug/well
# Description: as §1, with “histone 2A” for “fibrinogen and vimentin”
# as §3
# [18] = molecular target: T17, Histone 2A citrulline-containing …; assay: peptide ELISA, 0.4 ug/well
# Description: as §1, with “histone 2A” for “fibrinogen and vimentin”
# as §3
# [19] = molecular target: T13, Histone 2A citrulline-containing …; assay: peptide ELISA, 0.4 ug/well
# Description: as §1, with “histone 2A” for “fibrinogen and vimentin”
# as §3
# [20] = molecular target: T14, Histone 2A citrulline-containing …; assay: peptide ELISA, 0.4 ug/well
# Description: as §1, with “histone 2A” for “fibrinogen and vimentin”
# as §3
binder,measurement,setting,value
B1,OD,msVim XS/XL,2.77 OD
same,OD,msFibα XG,1.9 OD
same,OD,msFibα XH,0.091 OD
same,OD,msFibβ XG,3.15 OD
same,OD,CFC-1 [1],3.97 OD
same,OD,huFibα XG,1.51 OD
same,OD,huFibα XH,0.116 OD
same,OD,[2],0.055 OD
same,OD,[3],0.057 OD
same,OD,[4],0.16 OD
same,OD,CFC-1 [5],0.621 OD
same,OD,[6],0.059 OD
same,OD,[7],0.06 OD
same,OD,[8],0.063 OD
same,OD,[9],0.067 OD
same,OD,[10],0.057 OD
same,OD,[11],0.051 OD
same,OD,[12],0.064 OD
same,OD,[13],2.8 OD
same,OD,CFC-1 [14],3.06 OD
same,OD,[15],0.064 OD
same,OD,[16],0.154 OD
same,OD,[17],0.564 OD
same,OD,[18],0.061 OD
same,OD,[19],0.082 OD
same,OD,[20],0.061 OD

# From patent US20170298146A1 (MODIQUEST B V, published 2017)
